# Experimental data: PMC7679444
# B1: TMEM59 peptide (residues 268–280), wild type [modified: long spacer (Tds) at the N-terminal end, used for immobilisation; long spacer (Tds) at the N-terminal end, used for immobilisation] [not stated] / GST-HA-ATG16L1(231–607) … (parent)
# chain 1: PLPVEQDDDIEVIVDETSDHTEETSPVRAISRAATKRLSQPAGGLLDSITNIFGRRSVSSFPVPQDNVDTHPGSGKEVRVPATALCVFDAHDGEVNAVQFSPGSRLLATGGMDRRVKLWEVFGEKCEFKGSLSGSNAGITSIEFDSAGSYLLAASNDFASRIWTVDDYRLRHTLTGHSGKVLSAKFLLDNARIVSGSHDRTLKLWDLRSKVCIKTVFAGSSCNDIVCTEQCVMSGHFDKKIRFWDIRSESIVREMELLGKITALDLNPERTELLSCSRDDLLKVIDLRTNAIKQTFSAPGFKCGSDWTRVVFSPDGSYVAAGSAEGSLYIWSVLTGKVEKVLSKQHSSSINAVAWSPSGSHVVSVDKGCKAVLWAQY
# chain 2: YVPSEKLSIYGDL
# Variants of: B1
# Test: peptide microarray
# Details: with GST-HA-ATG16L1(231–607) [human], parent: 100
"percent of parent (ligand 200, 50, 20 nM) [% WT]","percent of parent (ligand 800, 600, 400 nM) [% WT]",Variant
9,11,chain 2 V2E
35,41,chain 2 V2P
12,15,chain 2 V2Q
50,56,chain 2 V2S
33,31,chain 2 V2T
101,96,chain 2 V2K
41,47,chain 2 V2R
118,119,chain 2 V2W
96,99,chain 2 V2I
250,177,chain 2 V2F
73,58,chain 2 V2G
47,50,chain 2 V2A
31,28,chain 2 V2M
54,86,chain 2 L7G
38,112,chain 2 L7W
11,28,chain 2 L7Q
102,89,chain 2 L7F
22,53,chain 2 L7K
13,11,chain 2 L7P
46,75,chain 2 L7N
32,59,chain 2 L7R
66,103,chain 2 L7H
98,88,chain 2 L7A
153,142,chain 2 L7V
3,7,chain 2 L7E

"percent of parent (ligand 200, 50, 20 nM) [% WT]","percent of parent (ligand 800, 600, 400 nM) [% WT]",Variant
11,12,chain 2 L7D
83,95,chain 2 L7I
39,52,chain 2 L7M
31,58,chain 2 L7S
38,73,chain 2 L7T
69,87,chain 2 L7Y
,95,chain 2 I9L
,66,chain 2 I9M
,102,chain 2 I9Q
,109,chain 2 I9V
,89,chain 2 I9P
,145,chain 2 I9H
,61,chain 2 I9S
,149,chain 2 I9K
,159,chain 2 I9F
,51,chain 2 I9N
,15,chain 2 I9D
,76,chain 2 I9A
,39,chain 2 I9G
,200,chain 2 I9W
,198,chain 2 I9Y
,96,chain 2 I9E
,49,chain 2 I9T
,93,chain 2 I9R
96,114,chain 2 K6F

"percent of parent (ligand 200, 50, 20 nM) [% WT]","percent of parent (ligand 800, 600, 400 nM) [% WT]",Variant
7,3,chain 2 K6P
8,11,chain 2 K6R
28,21,chain 2 K6H
50,56,chain 2 K6V
7,10,chain 2 K6M
4,2,chain 2 K6N
7,12,chain 2 K6T
3,4,chain 2 K6Q
105,74,chain 2 K6Y
6,6,chain 2 K6G
8,11,chain 2 K6S
2,3,chain 2 K6E
126,106,chain 2 K6W
35,51,chain 2 K6L
6,7,chain 2 K6A
53,61,chain 2 K6I
7,6,chain 2 K6D
,5,chain 2 Y10R
,3,chain 2 Y10N
,9,chain 2 Y10V
,3,chain 2 Y10H
,2,chain 2 Y10Q
,3,chain 2 Y10S
,2,chain 2 Y10E
,36,chain 2 Y10L

"percent of parent (ligand 200, 50, 20 nM) [% WT]","percent of parent (ligand 800, 600, 400 nM) [% WT]",Variant
,4,chain 2 Y10T
,3,chain 2 Y10P
,21,chain 2 Y10I
,2,chain 2 Y10G
,3,chain 2 Y10M
,4,chain 2 Y10A
,4,chain 2 Y10D
,6,chain 2 Y10K
,106,chain 2 Y10F
,135,chain 2 Y10W
,50,chain 2 L13A
,27,chain 2 L13D
,177,chain 2 L13I
,36,chain 2 L13M
,123,chain 2 L13V
,30,chain 2 L13N
,37,chain 2 L13Q
,5,chain 2 L13T
,94,chain 2 L13P
,201,chain 2 L13Y
,21,chain 2 L13K
,48,chain 2 L13R
,66,chain 2 L13H
,196,chain 2 L13W
,54,chain 2 L13G

"percent of parent (ligand 200, 50, 20 nM) [% WT]","percent of parent (ligand 800, 600, 400 nM) [% WT]",Variant
,173,chain 2 L13F
,60,chain 2 L13E
,32,chain 2 L13S
120,121,chain 2 Y1W
29,28,chain 2 Y1S
12,17,chain 2 Y1R
21,22,chain 2 Y1N
12,10,chain 2 Y1M
10,12,chain 2 Y1Q
17,19,chain 2 Y1K
17,17,chain 2 Y1T
30,28,chain 2 Y1H
10,12,chain 2 Y1D
16,17,chain 2 Y1P
17,18,chain 2 Y1A
75,79,chain 2 Y1I
15,16,chain 2 Y1V
44,41,chain 2 Y1L
139,121,chain 2 Y1F
94,92,chain 2 Y1G
13,13,chain 2 Y1E
